Source: patent US20120316071A1 (published 2012)

Experiments:
[1] = molecular target: T1, rHuman Erythropoietin R/Fc Chimera, CF (R&D Systems Cat#963-ER) (human, UniProt P19235 25-250); assay: MSD multispot ECL, antigen spotted, Fab 2383 nM; blank spot 344
T1 construct: Bought reagent; also called EPO R/Fc; Epo R
T1 sequence (looked up): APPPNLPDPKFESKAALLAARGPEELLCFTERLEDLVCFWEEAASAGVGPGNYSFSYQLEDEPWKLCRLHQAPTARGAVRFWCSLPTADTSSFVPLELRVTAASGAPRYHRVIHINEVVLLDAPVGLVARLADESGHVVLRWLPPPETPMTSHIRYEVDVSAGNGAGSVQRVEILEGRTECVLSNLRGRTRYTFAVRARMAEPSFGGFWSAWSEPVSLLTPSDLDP

[2] = molecular target: T2, rHuman HGF R/c-MET/Fc Chimera, CF (R&D Systems Cat#358-MT/CF) (human, UniProt P08581 25-932); assay: as above
T2 construct: Bought reagent; also called HGF R/Fc; hepatocyte growth factor receptor

[3] = molecular target: T3, Recombinant Human DLL4 (R&D Systems Cat#1506-D4/CF) (human, UniProt Q9NR61 27-524); assay: as above
T3 construct: Bought recombinant protein; also called rHuman DLL4; delta-like protein 4

[4] = molecular target: T4, rHuman EGF R/Fc Chimera, CF (R&D Systems Cat#344-ER) (human, UniProt P00533 25-645); assay: as above
T4 construct: Bought reagent; also called epidermal growth factor receptor

[5] = molecular target: T5, rHuman CD44/Fc Chimera, CF (R&D Systems Cat#3660-CD) (human, UniProt P16070 21-220); assay: as above
T5 construct: Bought reagent

[6] = molecular target: T6, rHuman IGF-1 sR, (IGF-1 sR), CF (R&D Systems Cat#391-GR) (human, UniProt P08069 31-932); assay: as above
T6 construct: Bought soluble receptor; also called insulin-like growth factor-1 soluble receptor

[7] = molecular target: T7, rHuman Notch-1/Fc Chimera, CF (R&D Systems Cat#3647-TK) (human, UniProt P46531 19-526); assay: as above
T7 construct: Bought reagent

[8] = molecular target: T8, rHuman ErbB2/Fc Chimera, CF (R&D Systems Cat#1129-ER) (human, UniProt P04626 23-652); assay: as above
T8 construct: Bought reagent; also called human epidermal growth factor 2 receptor

[9] = molecular target: T9, rHuman IGF-1 sR (IGF-1 sR), CF (R&D Systems Cat#391-GR) (human, UniProt P08069 31-932); assay: Multispot ECL (MSD) titration; antigen spotted on plate; Fab 1570 nM; blank spot 866
T9 construct: Bought soluble receptor; also called insulin-like growth factor-1 soluble receptor

[10] = molecular target: T10, rHuman ErbB2/Fc Chimera, CF (R&D Systems Cat#1129-ER) (human, UniProt P04626 23-652); assay: as above
T10 construct: Bought Fc chimera; also called human epidermal growth factor 2 receptor; Fc part of the bought chimera not given

[11] = molecular target: T11, rHuman P-Cadherin/Fc Chimera, CF (R&D Systems Cat#861-PC) (human, UniProt P22223 108-654); assay: as above
T11 construct: Bought Fc chimera; Fc part of the bought chimera not given

[12] = molecular target: T12, rHuman CD44/Fc Chimera, CF (R&D Systems Cat#3660-CD) (human, UniProt P16070 21-220); assay: as above
T12 construct: Bought Fc chimera; Fc part of the bought chimera not given

[13] = molecular target: T13, rHuman Notch-1/Fc Chimera, CF (R&D Systems Cat#3647-TK) (human, UniProt P46531 19-526); assay: as above
T13 construct: Bought Fc chimera; Fc part of the bought chimera not given

[14] = molecular target: T14, rHuman Erythropoietin R/Fc Chimera, CF (R&D Systems Cat#963-ER) (human, UniProt P19235 25-250); assay: as above
T14 construct: Bought Fc chimera; also called EPO R/Fc; EPO R; Fc part of the bought chimera not given
T14 sequence (looked up): T1 sequence (looked up)

[15] = molecular target: T15, rHuman HGF R/c-MET/Fc Chimera, CF (R&D Systems Cat#358-MT/CF) (human, UniProt P08581 25-932); assay: as above
T15 construct: Bought Fc chimera; also called HGF R/Fc; hepatocyte growth factor receptor; Fc part of the bought chimera not given

[16] = molecular target: T16, rHuman P-Cadherin/Fc Chimera, CF (R&D Systems Cat#861-PC) (human, UniProt P22223 108-654); assay: MSD Multispot ECL, antigen spotted on plate, Fab at 15 nM; blank spot 261
T16 construct: Bought Fc chimera; Fc part of the bought chimera not given

[17] = molecular target: T17, rHuman Erythropoietin R/Fc Chimera, CF (R&D Systems Cat#963-ER) (human, UniProt P19235 25-250); assay: as above
T17 construct: Bought Fc chimera; also called EPO R/Fc; Epo R; Fc part of the bought chimera not given
T17 sequence (looked up): T1 sequence (looked up)

[18] = molecular target: T18, rHuman Notch-1/Fc Chimera, CF (R&D Systems Cat#3647-TK) (human, UniProt P46531 19-526); assay: as above
T18 construct: Bought Fc chimera; Fc part of the bought chimera not given

[19] = molecular target: T19, rHuman CD44/Fc Chimera, CF (R&D Systems Cat#3660-CD) (human, UniProt P16070 21-220); assay: as above
T19 construct: Bought Fc chimera; Fc part of the bought chimera not given

B1: Fab VH1-46_IGHD6-6*01_IGHJ1*01 & L6_IGKJ1*01 (Fab, V domains shown)
VH: QVQLVQSGAEVKKPGASVKVSCKASGYTFTSYYMHWVRQAPGQGLEWMGIINPSGGSTSYAQKFQGRVTMTRDTSTSTVYMELSSLRSEDTAVYYCAREEYSSSSAEYFQHWGQGTLVTVSS
VL: not shown
notes: Only variable domains are tied to the molecule; Tested as a Fab made in E. coli: heavy chain from Plasmid A (CH1 constant region, His6 and Flag tags), kappa light chain from Plasmid C (kappa CL); also called parent Hit Fab against DLL4; VH1-46_IGHD6-6*01_IGHJ1*01 & L6_IGKJ1*01 (parental)
An ECL signal [1] of 658 ECL signal, an ECL signal [2] of 762 ECL signal and an ECL signal [3] of 11800 ECL signal were found for B1 in this work. The ECL signal [4] was 621 ECL signal, the ECL signal [5] was 559 ECL signal and the ECL signal [6] was 527 ECL signal. The ECL signal [7] was 690 ECL signal and the ECL signal [8] was 454 ECL signal.

B2: Fab VH1-46_IGHD3-10*01_IGHJ4*01 & O1_IGKJ1*01 (Fab, V domains shown)
VH: QVQLVQSGAEVKKPGASVKVSCKASGYTFTSYYMHWVRQAPGQGLEWMGIINPSGGSTSYAQKFQGRVTMTRDTSTSTVYMELSSLRSEDTAVYYCAREYYYGSGSYYNDYFDYWGQGTLVTVSS
VL: DIVMTQTPLSLPVTPGEPASISCRSSQSLLDSDDGNTYLDWYLQKPGQSPQLLIYTLSYRASGVPDRFSGSGSGTDFTLKISRVEAEDVGVYYCMQRIEFPSWTFGQGTKVEIKR
notes: Germline library Fab expressed in E. coli; VH was cloned into Plasmid A (CH1 constant region, His6 and Flag tags); The kappa VL was cloned into Plasmid C (kappa CL)
An ECL signal [9] of 1430, an ECL signal [10] of 1260 and an ECL signal [11] of 1790 were found for B2 in this work. The ECL signal [12] was 1380, the ECL signal [13] was 1640 and the ECL signal [14] was 6120. It also gave an ECL signal [15] of 1640.

B3: Fab VH6-1_IGHD3-3*01_IGHJ4*01 & V4-3_IGLJ4*01 (Fab, V domains shown)
VH: QVQLQQSGPGLVKPSQTLSLTCAISGDSVSSNSAAWNWIRQSPSRGLEWLGRTYYRSKWYNDYAVSVKSRITINPDTSKNQFSLQLNSVTPEDTAVYYCAREYYDFWSGYYTDYFDYWGQGTLVTVSS
VL: QPVLTQPTSLSASPGASARLTCTLRSGINLGSYRIFWYQQKPESPPRYLLSYYSDSSKHQGSGVPSRFSGSKDASSNAGILVISGLQSEDEADYYCMIWHSSASFVFGGGTQLIIL
notes: Tested as a purified germline Fab made in E. coli; The VH was cloned into plasmid A (CH1 constant region, His6 and Flag tags) and the lambda VL into plasmid E (lambda CL)
An ECL signal [16] of 351, an ECL signal [17] of 397 and an ECL signal [18] of 508 were found for B3 in this work. For the same binder, the ECL signal [19] was 454.
